Reference: article PMC3652601, “Structure of a dimeric crenarchaeal Cas6 enzyme with an atypical active site for CRISPR RNA processing” (Biochemical Journal, 2013)
Numbering of substitutions follows the chain as printed. Names may count otherwise.

Assays:
[1] = target: the molecule itself; test: crystal structure; selenomethionine-labelled methylated protein; 0.05 M bicine pH 9.1, 28% PEG 3350; SAD, 2.8 Å; four monomers in the asymmetric unit; interface analysed with PDBePISA
[2] = target: the molecule itself; test: SEC; calibrated gel filtration, HiLoad 26/600 Superdex 200, 20 mM Tris/HCl pH 7.5, 1 M NaCl; calibrated with Bio-Rad standards

B1: selenomethionine-labelled methylated SsoCas6 (enzyme, Sulfolobus solfataricus)
chain: PLIFKIGYNVIPLQDVILPTPSSKVLKYLIQSGKLLPSLNNLITSRDKYKPIFISHLGLNQRRIFQTNGNLKTISRGSKLSSTIAFSTQVNVLPELDEGVFETIYGKFHITIESVEIVEVEKLKEEVEKHMNDNIRVRFISPTLLSSKVLLPPSLSERYKRVNAGYSTLPSVGLIVAYAYNVYCNLIGKKEVEVRAFKFGVISNALSRIIGYDLHPVTIVIGEDSKGNLRKARGVMGWIEFDIPDEKLKRRALRYLLASSYLGIGRSRGIGFGEIKLEFIKREENH
modifications: (L)-selenomethionine derivative; surface lysine residues reductively methylated
notes: Cas6 paralogue Sso1437 of Sulfolobus solfataricus; residues 43-50 and 90-93 disordered in the crystal; Same construct as m1, labelled with selenomethionine and methylated for crystallography; also called (L)-selenomethionine derivative of SsoCas6; not shown: His6, N-terminal, cleaved
binding result [1]: binds

B2: Sulfolobus solfataricus Cas6 (Sso1437), wild type (enzyme)
chain: B1 chain
notes: Cas6 paralogue Sso1437 of Sulfolobus solfataricus, gene amplified by PCR from genomic DNA; expected molecular mass of the monomer 33 kDa; Cloned into pET151-TOPO; also called SsoCas6; wild-type (WT) enzyme; source: E. coli C43(DE3), purified (Ni-NTA, TEV cleavage, Superdex 75 gel filtration); not shown: His6, N-terminal, cleaved
stoichiometry N [2]: 2

B3: SsoCas6 K28H variant (enzyme, Sulfolobus solfataricus)
chain: B1 chain with K27H
notes: Cas6 paralogue Sso1437 of Sulfolobus solfataricus with K28H; Used in the calibrated gel filtration in place of the wild type; source: E. coli, purified according to the same protocol as the wild type; not shown: His6, N-terminal, cleaved
stoichiometry N [2]: 2
